Source: patent US20220348877A1, “GENERATION OF QUIESCENT CARDIAC FIBROBLASTS FROM HUMAN INDUCED PLURIPOTENT STEM CELLS FOR IN VITRO MODELING OF CARDIAC FIBROSIS” (The Board of Trustees of the Leland Stanford Junior …, priority 2019, published 2022)

Columns and labels:
[1] = system: primary CFs; experiment: In vitro wound-healing assay, primary CFs; format: cell-based, human; conditions: 25 ng/ml, 24-hour observation
Experimental: Human primary skin, cardiac, lung, bladder fibroblast, and brain pericyte cultures. Human primary cardiac fibroblasts were isolated and cultured as follows: a piece of fresh right atrial biopsy was weighed, minced into small pieces (1-2 mm^3), and digested in 6-well peri-dishes as described. Human primary cardiac fibroblasts were grown and maintained in a fibroblast growth medium (C-23025, Promocell) supplemented with 1% penicillin-streptomycin (15140-122, Gibco) in a humidified atmosphere (95% air, 5% CO2) at 37° C. The medium was renewed every 2-3 days. Cells were passaged using standard trypsinization techniques at 80-90% confluency. The same protocol was also used to isolate and culture fibroblasts from human skin and lung tissues. Primary bladder fibroblasts were purchased from Lifeline (FC-0050) and maintained in the same fibroblast growth medium. […]
In vitro wound-healing assay. The migration of human iPSC-CFs and primary CFs was determined using a Cytoselect™ 24-Well Wound Healing Assay Kit (CBA-120, Cell Biolabs). […] The cell-free areas at each time point were measured by Image-Pro Plus (version 6.0, Media Cybernetics). For quantification purposes, the wound area generated at 0 hr was set as S0, the uncovered areas captured at 12 hrs, and 24 hrs were recorded as Si (i=12 or 24). The wound closure rate was then calculated by the following equation: wound closure rate

[2] = system: human iPSC-CFs; experiment: In vitro wound-healing assay, iPSC-CFs; format: cell-based; conditions: 25 ng/ml, 24-hour observation
Experimental: In vitro wound-healing assay. The migration of human iPSC-CFs and primary CFs was determined using a Cytoselect™ 24-Well Wound Healing Assay Kit (CBA-120, Cell Biolabs). Briefly, after confluent monolayers of CFs were formed, cells were synchronized in a low serum medium (0.5% FBS) for 24 hrs. After the wound-generating scaffold was removed from each well, cells were washed in PBS to remove residual cells in the wounded area. Cells were treated with vehicle or PDGF-BB (25 ng/ml), and images were captured using a light microscope in identical areas at baseline, 12 hrs, and 24 hrs post-treatment. The cell-free areas at each time point were measured by Image-Pro Plus (version 6.0, Media Cybernetics). For quantification purposes, the wound area generated at 0 hr was set as S0, the uncovered areas captured at 12 hrs, and 24 hrs were recorded as Si (i=12 or 24). The wound closure rate was then calculated by the following equation: wound closure rate

B1: platelet derived growth factor-BB: platelet derived growth factor-BB, migration stimulus (protein, UniProt P01127 82-190, looked up)
Platelet-derived growth …: SLGSLTIAEPAMIAECKTRTEVFEISRRLIDRTNANFLVWPPCVEVQRCSGCCNNRNVQCRPTQVQLRPVQVRKIEIVRKKPIFKKATVTLEDHLACKCETVAAARPVT
cell migration (wound closure) [1]: induced cell migration | cell migration (wound closure) [2]: induced cell migration
